Assay results published in PMC9904299.

Molecular target: mitochondrially targeted human MSRA tagged with tGFP at its C-terminus (targeting sequence of ornithine carbamoyltransferase fused to the N-terminus of MSRA)
Assay: co-immunoprecipitation (anti-FLAG IP, anti-tGFP blot), band intensity quantitated with Odyssey infrared scanner
Conditions: HEK293 cells; 3 separate experiments; parent: est. 100; read off a plot

| percent of parent [%] | Substance |
| --- | --- |
| 90 | FLAG-tagged human Ndufaf2 M85V |
| 36 | FLAG-tagged human Ndufaf2 M85V; M160V |
| 90 | FLAG-tagged human Ndufaf2 M160V |
